Values quoted from earlier work in publication PMC5689411.

Target: RNR beta2 (Escherichia coli) (UniProt P69924)
Assay: competitive inhibition assay

Chain of UniProt P69924 (P69924 2-376): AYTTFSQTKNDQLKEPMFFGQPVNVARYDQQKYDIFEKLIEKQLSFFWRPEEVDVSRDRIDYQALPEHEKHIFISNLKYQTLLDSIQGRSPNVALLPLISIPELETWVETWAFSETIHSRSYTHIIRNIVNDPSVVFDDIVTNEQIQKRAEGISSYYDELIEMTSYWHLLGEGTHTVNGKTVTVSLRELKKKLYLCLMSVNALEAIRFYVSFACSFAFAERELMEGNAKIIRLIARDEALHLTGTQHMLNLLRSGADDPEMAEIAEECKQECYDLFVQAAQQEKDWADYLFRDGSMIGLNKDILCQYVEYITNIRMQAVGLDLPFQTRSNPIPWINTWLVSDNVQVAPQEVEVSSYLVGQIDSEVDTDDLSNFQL

- Kd: 180 nM
Substance: RNR alpha2 (from UniProt P00452)
